From the nanobody polyreactivity screen of Harvey et al. (2022)

Experiment: yeast display, Sf9 membrane polyspecificity reagent, FACS + sequencing; frameworks hold sequencing errors
Procedure, shortened: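 Genes from sorted yeast were amplified by colony PCR, read by MiSeq 2 × 250 sequencing and filtered on CDR length. These cells carried a synthetic nanobody library in Saccharomyces cerevisiae BJ5465 and were sorted by FACS into low and high (top ~1%) gates on anti-HA and streptavidin fluorescence. Polyreactivity is labelled according to the gate of origin.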

## QVQIVESGAGLVQPGGSLRLSCAASGRTFPLYAMGWYRPAPGKEREFVAAITVSGVSTSYADSVKGRFTISRDNAKNTVYLQMNSLKPEDTAVYYCAADYYIWTYWDVYYWGQGTQVTVSS
  polyreactivity (PSR sort gate): high polyreactivity

## QVQIVESGGCLVQAGGSLRLSCAASGFTLFLNSMGWYRQAPGQERELVAAISKSDGITYYADSVKGRFSISRDNAKNTVYLKMNSLKPEDTAVYYCNADARGWSVWDPGEYNYWGQGTQVNVSS
  polyreactivity (PSR sort gate): low polyreactivity

## QVQIVESGGGKVQEGGSLRLSCAASGITFTWYDMGWYRQAPGKERELVAAITTDGGSTYYADSVKGRFTISRDNAKNTVYLQINSLKPEDTAVYYCAAAGYVPFPVVYEYWGQGTQVTVSS
  polyreactivity (PSR sort gate): high polyreactivity

## QVQIVESGGGLFQAGGSLRISCAASGRPFAPNAMGWYRQAPAKERELVAAITGRGGRTYYADSVKGRFTISRDNANNTVYLQMNSEKPADTAVYYCAYFIAPWGLDFWGQGTEVTVSS
  polyreactivity (PSR sort gate): high polyreactivity

## QVQIVESGGGLVHAGGSLRLSCAASGRNIPPYVIAWYRQAPGKEREMVAAMSWRGGNTYYADSVKGRFTISRDNAKNTVYLQMNSLKPEDTAVYYCAAKAYRRYSIPPYGYWGQGTQVTVSW
  polyreactivity (PSR sort gate): low polyreactivity

## QVQIVESGGGLVHAGGSLRLSCAASGSIYKRYAMGWYRQAPGKERELVAAIRWSGGSTYYADSVKGRFTISRDNAMNTVFLQMNSLKPEDTAVYYCARDGWGRLYGMGYWGQGTQVTVSS
  polyreactivity (PSR sort gate): low polyreactivity

## QVQIVESGGGLVPAGCSLRLICAASGFTYALYAMGWYRQAPGKETELVAANTYRGGSTYDADSVKWRFTISRDNAKNTVYLQLISLKPEDTAVYYCNAGGLWFPGVPDYDYWVQGTQVTVSS
  polyreactivity (PSR sort gate): high polyreactivity

## QVQIVESGGGLVQAAGSLRLSCAASGRTFGYYAMGWYREAPGKEREMVAAITSCGRNTYYADTVKGRFTISRDNAKNNVYLQMNRLKPEDTAVYYCNTVYHAYWGKCVNYWGQGTQVTVSS
  polyreactivity (PSR sort gate): high polyreactivity

## QVQIVESGGGLVQAGGILRLSCAASGRIFWRNAMGWYRQAPGKEREFVAAITYTAGRTYYADSVKGRFTISRDNSKITVYLQMNSLKPEDTAVYYCAAGSRRPGGTGYDHWVQGTQVTVSS
  polyreactivity (PSR sort gate): low polyreactivity

## QVQIVESGGGLVQAGGILRLSCAASGRIFYTNAMGWYRKAPAKERELVAAIDNSDSTTYYADSVKWRYTISRDNAKNTVYLQMNSLKPEDTAVYYCAAESYLYTVTFEYWGQGTQVTVSS
  polyreactivity (PSR sort gate): high polyreactivity

## QVQIVESGGGLVQAGGSLPLSCADYGLIFPDYAMGCYRQAPGKEREFVASIWRGGTTYYADSVKGRFTISRDNAKNTFYFKINSLKPEDTAVYYCASRYFHRGLVFPFTKYDYWGLGTQVTVSS
  polyreactivity (PSR sort gate): high polyreactivity

## QVQIVESGGGLVQAGGSLRISCAASGRTFYWNAMGWNREAPGKEMELVSAISDGGGSTYYADSVKGRFSISRDNAKNTVYLQMNSLKPEDTAVYYCNTPDNQDKPYPGYDYWGQGTQVTVSS
  polyreactivity (PSR sort gate): low polyreactivity

## QVQIVESGGGLVQAGGSLRLRCAASGRTFRDNAMGWSRQAPGKERELVAAIDIDSSTYYADSVKGRFTISRDNAKNTVYLQMISLKPEDTAVYYCAAESYHDGIGFPDYEYWGQGTQVTVSS
  polyreactivity (PSR sort gate): low polyreactivity

## QVQIVESGGGLVQAGGSLRLSCAASGFIFGPYAMGWYRQAPGKERELVAAMSRSGGDTYYADSVKGRFTISRDFEKNTVYLQMNSLKPEDTAVYYCAAVGKYSAYNYWGQGTQVTVSS
  polyreactivity (PSR sort gate): high polyreactivity

## QVQIVESGGGLVQAGGSLRLSCAASGFIFGQYAMGWYRQAPGKERELVAAISSVGTTNYADSVKGRFTISRDNAKNTVYLQMNSLKPEDTAVYYCNAPVFYYWDYSYFPYEVDYWGQGTQVTESS
  polyreactivity (PSR sort gate): low polyreactivity

## QVQIVESGGGLVQAGGSLRLSCAASGFIFWFNAMGWYRQAPGKERELVATISWSDTSTYYAVSVKGRFTISRDNAKNTVYLQMNSLKPEDTAVYYFATDASETSLPEYYWGQGTQETVSS
  polyreactivity (PSR sort gate): low polyreactivity

## QVQIVESGGGLVQAGGSLRLSCAASGFTCRGNAMGWYRQAPGKERELVATISYNAGSTYYADAVKGRFTISRDNAKNTVYFQMNSLNPEDTAVYYCAVELDSEPDYEPWTEYDYWGQGTQVTVSS
  polyreactivity (PSR sort gate): low polyreactivity

## QVQIVESGGGLVQAGGSLRLSCAASGFTIDQYAMGWYRQAPGKERELVAAISWRGGSTYYADSVKGRFTISRDNAKNTVYLQMNSLKPEDTAVYYCNGYSPYHAGVDYGYWGQGTQVTVSS
  polyreactivity (PSR sort gate): high polyreactivity

## QVQIVESGGGLVQAGGSLRLSCAASGLIFDANAMGWYRQAPGKERELVAAISNGDSTYYADSVKGRFTISRDNAKNTVYLQMNSLKPEDTAVYYCNARIIYRKWLLRSGTFNYWGQGTQVTVSS
  polyreactivity (PSR sort gate): low polyreactivity

## QVQIVESGGGLVQAGGSLRLSCAASGLTFAYYAMGRYRQAPGKERELVAAISYSGGSTYYADSVKGRFTISRDNAKITVYLQMNSLKPEDTAVYYCNAYSRKTPHLYYYWGQGTQVTVSS
  polyreactivity (PSR sort gate): high polyreactivity

## QVQIVESGGGLVQAGGSLRLSCAASGRIFGYNAMGWYRQAPGKERELVAAISNTGGSTYYADSVKGRFTISRDNAKNTVYLQMNSLKPEDTAVYYCNASGRRVQIWEGDYWGHGTQVTVSS
  polyreactivity (PSR sort gate): high polyreactivity

## QVQIVESGGGLVQAGGSLRLSCAASGRIFTYNAMGWSRQAPGKERELVAAITRGGTTNYADSVKVRFTISRDNAKNTVYLQMNSLKPEDTAVSYCARAGAHPWWSRSTMYYWGQGTQVTVSS
  polyreactivity (PSR sort gate): low polyreactivity

## QVQIVESGGGLVQAGGSLRLSCAASGRIFVRNAMGWYRQAPAKERELVADITNGGSTNYADSVKGRFTISRDNEKNTVYLQMNSLKPEDTAVYYCAADSLGVYDGDYWGQGTQVTVSS
  polyreactivity (PSR sort gate): low polyreactivity

## QVQIVESGGGLVQAGGSLRLSCAASGRIFYNYAMGWNRQAPGKERELVAAISGSGGSTYYADSVKGRFTISRDNAKNTVYLQMNSLKPEDTAVYYCSTSGPQYYSRNFDYWGQGTQVTVSS
  polyreactivity (PSR sort gate): low polyreactivity

## QVQIVESGGGLVQAGGSLRLSCAASGRILVPYTMGWYRQAPGKERELVAAITIGGRTTYADSVKGRFTISRDNAKNTVYLQMNSLKPEDTAVYYCAKRDWRYEWYGYDYWGQGTQVTVSS
  polyreactivity (PSR sort gate): low polyreactivity

## QVQIVESGGGLVQAGGSLRLSCAASGRNFGANAMGWYRQAPGKERELVASISSSGSRTYYAVSVKGRFTISRDNAKNTVSLQMNSLKPEDSAVYYCAARYWIYRSEYDYWGQGTQVTVSS
  polyreactivity (PSR sort gate): high polyreactivity

## QVQIVESGGGLVQAGGSLRLSCAASGRTFTYYAMGWYRQAPGKERELVARIRSGGSTYYADSVKGRFTISRDNEKNTVYLQMNSLKPEDTAVYYCNADRRSAGLYNYWGQGTQVTVSS
  polyreactivity (PSR sort gate): low polyreactivity

## QVQIVESGGGLVQAGGSLRLSCAASGRTFYSYAMGWYRQAPGKERELVAAIRWPGVRTYYADSVKGRFTISRDNAKNSFYLQMNSLKPEDTAVYYCAVYRYSGKGYRGPRDYWGQGTQVTVSS
  polyreactivity (PSR sort gate): high polyreactivity

## QVQIVESGGGLVQAGGSLRLSCAASGRTIYYYTMGWYIQAPGKERELVAAITHGGSTYYADSVKGRFTISRDNAKNTVYLQMNSLNPEDTAVYYCNAVYDYPYEYWGQGTQVTVSS
  polyreactivity (PSR sort gate): high polyreactivity

## QVQIVESGGGLVQAGGSLRLSCAASGRTLALYTMGWYRQAPGKERELVAAINWSGTSTYYADSVKGRNTISRDNAKNTVYLQINILKPEDTAVYYCNADGSAYIEDGYDYWGQGTQVTVSS
  polyreactivity (PSR sort gate): low polyreactivity

## QVQIVESGGGLVQAGGSLRLSCAASGRTLGFYAMGWYRQAPGKEREFVAAISSSVGRTYYADSVKGRFTISRDNAKNTVYLHMNRLKPEDTAVYYCAAKVSAWKKKSEMNYWGQGTQVTVSS
  polyreactivity (PSR sort gate): high polyreactivity

## QVQIVESGGGLVQAGGSLRLSCAASGRTLSYYAMGWYRQAPGKEREFVAAITGSGGSTYYADSVKGRFTISRDNAKNYVYFQMNSLKPEDTAVYYCNAKGLGVFTVEYYYWGQGTQVTVSS
  polyreactivity (PSR sort gate): low polyreactivity

## QVQIVESGGGLVQAGGSLRLSCAASGSIFDDYAMGWYRQAPGKERELVAAISSGVSTDYADSVKGRFTISRDNAKNTVYLQMYSLKPEDTAVYYCAADDQYRVTLGYDYWGQGTQVTVSS
  polyreactivity (PSR sort gate): low polyreactivity

## QVQIVESGGGLVQAGGSLRLSCAASGSIFFIYGMGWYRQAPVKERELVARIRVSGDSTYYADSVKGRFTISRDNAKNTVYVQMNSLKPVDTAVYYCNARSLWGYGYWGQCTQVTVSS
  polyreactivity (PSR sort gate): high polyreactivity

## QVQIVESGGGLVQAGGSLRLSCAASGSIFGANDMGWYRQAPGKERELVAAISTRGGRTYYADSVKGRFTISRDNEMNTVYLHMNSLKPEDTAVYYCDTSGGRPYKYEYWGQGTQVTVSS
  polyreactivity (PSR sort gate): high polyreactivity

## QVQIVESGGGLVQAGGSLRLSCAASGSIFSGYVMGWYRQAPGKERELVAAITWSGGRTYYADSVKGRFTISRDNAKNTVYLQMNSLKPEDTAVYYCAKRKIKSSGYYYWGQGTQVTVSS
  polyreactivity (PSR sort gate): high polyreactivity

## QVQIVESGGGLVQAGGSLRLSCAASGSIFSVYAMGWYRQAPGKERELVAGINRRTGITYYADSVKGRFTISRDNAKNTVYLQMNSLKPEDTAVYYCAADPYVKYNYWGQGTQVTVSS
  polyreactivity (PSR sort gate): low polyreactivity

## QVQIVESGGGLVQAGGSLRLSCAASGSIFTYNAMGWYRQAPGKERELVAAISYSGVRTYYADSVKGRFTISRDNAKNTVYLQMNRLKPVDTAVYYCNTRYPYSVLKYGYWGQGTQVTVSS
  polyreactivity (PSR sort gate): high polyreactivity

## QVQIVESGGGLVQAGGSLRLSCAASGSTFGYYAMGWYRQAPGKERELVAAISWRGGSTYYADSVKGRFTISRDNAKNTVYLQMHILKPEYTAVYYCAAAIFITGYGSYGYWGLGTQVTVSS
  polyreactivity (PSR sort gate): low polyreactivity

## QVQIVESGGGLVQAGGSLRLSCAASGSTFGYYTMGWYRQAPGKERELVAAISWSGGSTYYADSVKGRFTISRDNAKNTVYLQKNSLKPEDTAVYYCAALGYTYKYYSYYWGQGTQVTVSS
  polyreactivity (PSR sort gate): high polyreactivity

## QVQIVESGGGLVQAGGSLRLSCAASGSTFKRYAMGWYRQAPGKERELVAAITWRGGSTYYADSVKGRFTISRDNAKNTVYLQMNSLKPEDTAVYYCAARANYFGWPKSYYYWGQGTQVTVSS
  polyreactivity (PSR sort gate): high polyreactivity

## QVQIVESGGGLVQAGGSLRLSCAASGSTFYYNTMGWYRQAPGKERELVAAISWRRVSTYYADSVKGRFTISRDIAKNTVYFQMNSLKPEDTAVYYCNAVHHYPEHIGGGYWGQGSQVTVSS
  polyreactivity (PSR sort gate): low polyreactivity

## QVQIVESGGGLVQAGGSLRLSCAASGSTSTLNAMGWYRQAPGTERELVAAISRSGTSTYFADSVKGRFTISRDNAKNTVYLQMNSLKPEDTADYYCAAYSYGPPYYYWGQGTQVTVSS
  polyreactivity (PSR sort gate): high polyreactivity
